Test results as given in paper doi:10.1101/2024.09.16.613335, “Structure-guided assembly of an influenza spike nanobicelle vaccine provides pan H1 intranasal protection” (bioRxiv, 2024).

Target: the molecule itself
Test: cryo-EM structure

B1: hemagglutinin (HA) spike on spiked nanobicelles (SNB) purified from the Fluad vaccine (natural protein)
chain: not shown
stoichiometry N: 3
